Measured values reported in PMC3163439 (Molecular cell, 2009).

What was measured:
BAX, in vitro translated [1] = target: BAX, in vitro translated (UniProt Q07813); assay: co-IP
BAX, in vitro translated [2] = target: BAX, in vitro translated (UniProt Q07813 1-192); assay: co-IP
Sequence of BAX, in vitro translated (UniProt Q07813 1-192) (Q07813 whole entry): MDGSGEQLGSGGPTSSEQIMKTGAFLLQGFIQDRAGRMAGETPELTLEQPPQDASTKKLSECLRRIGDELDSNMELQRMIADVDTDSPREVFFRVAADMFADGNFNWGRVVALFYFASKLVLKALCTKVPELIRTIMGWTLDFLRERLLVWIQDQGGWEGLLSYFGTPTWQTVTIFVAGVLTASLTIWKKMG

Sequence of BAX, in vitro translated (UniProt Q07813) (Q07813 whole entry): as above
Sequence of truncated BID (tBID), in vitro translated (domain or fragment) (P70444 whole entry, the tested form may be a part): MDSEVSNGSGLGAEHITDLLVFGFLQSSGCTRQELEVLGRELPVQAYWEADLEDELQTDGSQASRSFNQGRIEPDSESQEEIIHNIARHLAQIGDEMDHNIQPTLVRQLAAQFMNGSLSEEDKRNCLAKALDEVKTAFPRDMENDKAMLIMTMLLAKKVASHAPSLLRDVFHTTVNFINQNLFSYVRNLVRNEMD

| Molecule | stoichiometry N (BAX, in vitro translated [1]) | stoichiometry N (BAX, in vitro translated [2]) |
| --- | --- | --- |
| truncated BID (tBID), in vitro translated (domain or fragment) | 1 |  |
| BIM, in vitro translated (natural protein, UniProt O54918 1-196, looked up) MAKQPSDVSSECDREGGQLQPAERPPQLRPGAPTSLQTEPQGNPDGEGDRCPHGSPQGPLAPPASPGPFATRSPLFIFVRRSSLLSRSSSGYFSFDTDRSPAPMSCDKSTQTPSPPCQAFNHYLSAMASIRQSQEEPEDLRPEIRIAQELRRIGDEFNETYTRRVFANDYREAEDHPQMVILQLLRFIFRLVWRRH |  | ~1 |
| PUMA, in vitro translated (natural protein, UniProt Q99ML1 1-193, looked up) MARARQEGSSPEPVEGLARDSPRPFPLGRLMPSAVSCSLCEPGLPAAPAAPALLPAAYLCAPTAPPAVTAALGGPRWPGGHRSRPRGPRPDGPQPSLSPAQQHLESPVPSAPEALAGGPTQAAPGVRVEEEEWAREIGAQLRRMADDLNAQYERRRQEEQHRHRPSPWRVMYNLFMGLLPLPRDPGAPEMEPN |  | ~1 |
